Laboratory results as given in PMC8784393 (ACS applied materials & interfaces, 2021).

Tests used:
α-chymotrypsin = α-chymotrypsin (Bos taurus, UniProt P00766); test: Proteinase assay, α-chymotrypsin degradation by PAGE; format: in vitro ADME; conditions: bands of intact MEL diminished significantly after 15 min
SKOV-3 cells = test: Cell viability after 48 h treatment; format: cell-based, human
Dynamic light scattering = format: physicochemical; conditions: DLS intensity average, scattering angle 90°, room temperature, Nanopure water
NCI-H358 cells [1] = test: Cell viability after 48 h treatment; format: cell-based, human
human red blood cells = test: Hemolysis assay, hemoglobin released from red blood cells; format: cell-based; conditions: hemoglobin in supernatant, spectrophotometric
human plasma = test: Activated partial thromboplastin time; conditions: 20 μM MEL concentration
NCI-H358 xenografts [2] = test: Tumor growth inhibition in NCI-H358 xenograft; format: in vivo, athymic nude mice; conditions: 3 mg/kg MEL-basis i.v. every 3 days, 30 days, n = 4; vehicle 453%
SKOV3 cells = test: Cellular uptake kinetics by flow cytometry; format: cell-based, human; conditions: 1 μM of MEL for 1–4 h
[3] = Innate immune response, cytokine ELISA; format: in vivo; conditions: C57BL/6 mice, 3 mg/kg MEL, blood 4 h after injection, n = 5
ζ potential measurement = format: physicochemical; conditions: in Nanopure water
[4] = Plasma pharmacokinetics after tail vein injection; format: in vivo; conditions: C57BL/6 mice, i.v. tail vein, Cy5.5-labeled, two-compartment model, n = 5
NCI-H358 xenografts [5] = test: Biodistribution by fluorescence imaging in NCI-H358 xenograft mice; format: in vivo; conditions: i.v. 3 mg/kg MEL, 24 h post-injection, n = 2
NCI-H358 cells [6] = test: Cellular uptake kinetics by flow cytometry; format: cell-based, human; conditions: 1 μM of MEL for 1–4 h

Substance	α-chymotrypsin digestion (in words) (α-chymotrypsin)	cytotoxicity (cell viability, in words) (SKOV-3 cells)	Dh (hydrodynamic diameter, DLS) (Dynamic light scattering)	cytotoxicity (cell viability, in words) (NCI-H358 cells [1])	hemolysis at 1 μM (human red blood cells; 1 μM)	effect on coagulation (clotting) time, aPTT (human plasma)	tumor growth by day 30 (% of original size) (NCI-H358 xenografts [2])	cellular uptake (in words) (SKOV3 cells)	interleukin-6 (IL-6) activation [3]	ζ potential (ζ potential measurement)	elimination half-life (t1/2β) [4]	tumor vs. liver ratio (relative fluorescent intensities) (NCI-H358 xenografts [5])	tumor vs. spleen ratio (relative fluorescent intensities) (NCI-H358 xenografts [5])	hemolysis of RBCs at 60 μM (human red blood cells; 60 μM)	cellular uptake (in words) (NCI-H358 cells [6])
YPEG-MEL: conjugate of low PEG density: MEL on Y-shaped PEG, Mn 40 kDa, each arm 20 kDa	digested rapidly	reduced but still apparent cytotoxicity	21.0 ± 0.5 nm	reduced but still apparent cytotoxicity	16%										
melittin	digested rapidly					doubling the coagulation times	did not lead to statistically meaningful repression of tumor growth	fast and accelerating process	induces activation	~ 8 mV	43 min	0.61	0.55	near-complete hemolysis	fast and accelerating process
pacMELNClv: non-cleavable conjugate of MEL and bottlebrush PEG, negative control		no evident cytotoxicity		no evident cytotoxicity											
